Source: US20240158474A1 (SINO BIOLOGICAL, published 2024)

Key:
[1] = target: T1, HPV11 VLP protein (human papillomavirus type 11; human …, UniProt P04012 1-470; P06416 474-499); assay: indirect ELISA on coated VLP
T1 construct: range 1-470;range 474-499; Complete VLP protein used as coating protein
T1 sequence: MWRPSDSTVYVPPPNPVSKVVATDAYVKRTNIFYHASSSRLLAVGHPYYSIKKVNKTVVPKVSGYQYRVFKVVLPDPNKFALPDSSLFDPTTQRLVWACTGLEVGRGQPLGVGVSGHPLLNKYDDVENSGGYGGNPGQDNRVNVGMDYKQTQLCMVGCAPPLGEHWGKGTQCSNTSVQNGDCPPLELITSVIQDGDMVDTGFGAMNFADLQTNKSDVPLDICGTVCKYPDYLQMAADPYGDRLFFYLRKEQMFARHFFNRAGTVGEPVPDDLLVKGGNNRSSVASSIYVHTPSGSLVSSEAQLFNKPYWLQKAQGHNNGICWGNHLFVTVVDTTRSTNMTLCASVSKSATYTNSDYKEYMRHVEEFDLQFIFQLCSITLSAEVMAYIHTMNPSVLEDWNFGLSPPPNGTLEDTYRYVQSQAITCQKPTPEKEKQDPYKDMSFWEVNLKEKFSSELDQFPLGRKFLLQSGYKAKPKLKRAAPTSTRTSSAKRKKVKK

[2] = target: T2, HPV56 VLP protein (human papillomavirus type 56, UniProt P36743 36-507); assay: indirect ELISA on coated VLP
T2 construct: Complete VLP protein; no limits of the construct printed, whole entry named; also called HPV56L1
T2 sequence: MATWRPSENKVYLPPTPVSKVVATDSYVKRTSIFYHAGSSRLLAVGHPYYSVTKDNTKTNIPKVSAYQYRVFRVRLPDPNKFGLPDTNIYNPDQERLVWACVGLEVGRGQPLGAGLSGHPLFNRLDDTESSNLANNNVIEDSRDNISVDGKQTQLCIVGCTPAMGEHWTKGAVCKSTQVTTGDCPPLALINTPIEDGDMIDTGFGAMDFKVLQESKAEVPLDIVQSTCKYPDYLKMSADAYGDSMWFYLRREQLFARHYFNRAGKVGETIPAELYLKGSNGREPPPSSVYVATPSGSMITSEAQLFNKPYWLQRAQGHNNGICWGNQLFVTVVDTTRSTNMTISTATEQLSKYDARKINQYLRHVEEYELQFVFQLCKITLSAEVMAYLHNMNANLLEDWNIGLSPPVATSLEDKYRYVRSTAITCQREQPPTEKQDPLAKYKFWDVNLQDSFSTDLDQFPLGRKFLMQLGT

[3] = target: T3, HPV52 VLP protein (human papillomavirus type 52, UniProt Q05138 27-504); assay: indirect ELISA on coated VLP
T3 construct: Complete VLP protein; no limits of the construct printed, whole entry named; also called P52SHELL
T3 sequence: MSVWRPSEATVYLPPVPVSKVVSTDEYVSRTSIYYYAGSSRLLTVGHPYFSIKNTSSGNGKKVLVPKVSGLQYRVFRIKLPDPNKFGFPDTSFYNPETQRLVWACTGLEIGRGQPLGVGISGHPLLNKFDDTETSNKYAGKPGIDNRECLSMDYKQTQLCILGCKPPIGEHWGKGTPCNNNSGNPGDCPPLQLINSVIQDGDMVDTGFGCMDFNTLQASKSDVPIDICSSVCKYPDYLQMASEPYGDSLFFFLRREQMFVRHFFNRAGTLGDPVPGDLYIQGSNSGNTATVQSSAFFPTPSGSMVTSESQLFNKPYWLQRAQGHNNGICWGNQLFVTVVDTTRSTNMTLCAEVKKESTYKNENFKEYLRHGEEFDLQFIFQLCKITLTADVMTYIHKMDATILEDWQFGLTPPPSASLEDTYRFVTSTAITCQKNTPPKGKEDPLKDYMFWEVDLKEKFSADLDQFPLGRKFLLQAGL

[4] = target: T4, HPV58 VLP protein (human papillomavirus type 58, UniProt P26535 27-499); assay: indirect ELISA on coated VLP
T4 construct: Complete VLP protein; no limits of the construct printed, whole entry named; also called P58SHELL
T4 sequence: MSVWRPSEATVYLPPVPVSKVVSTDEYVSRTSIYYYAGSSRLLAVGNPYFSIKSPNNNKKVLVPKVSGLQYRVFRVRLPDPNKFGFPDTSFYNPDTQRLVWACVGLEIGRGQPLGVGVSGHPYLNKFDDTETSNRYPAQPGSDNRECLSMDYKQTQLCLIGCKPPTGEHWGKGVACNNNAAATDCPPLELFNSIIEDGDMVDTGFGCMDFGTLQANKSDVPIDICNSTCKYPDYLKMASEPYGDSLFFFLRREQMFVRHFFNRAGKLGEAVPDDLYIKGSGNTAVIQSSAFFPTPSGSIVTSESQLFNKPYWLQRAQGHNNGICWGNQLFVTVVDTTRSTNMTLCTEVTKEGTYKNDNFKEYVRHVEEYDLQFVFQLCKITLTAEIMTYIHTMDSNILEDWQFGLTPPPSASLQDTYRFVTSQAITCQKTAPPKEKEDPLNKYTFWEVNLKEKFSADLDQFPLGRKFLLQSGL

[5] = target: T3, HPV52 VLP protein; assay: indirect ELISA, VLP coated at 2 µg/mL, antibody 10 ng/mL, HRP goat anti-rabbit Fc
[6] = target: T5, HPV45 VLP protein (human papillomavirus type 45; human …, UniProt P36741 1-478; P06416 474-499); assay: double-antibody sandwich ELISA on the mixture of 13 HPV VLPs
T5 construct: range 1-478;range 474-499; Complete VLP protein used as coating protein; also called HPV45L1(1-478L)+HPV33L1(474K-499K)
T5 sequence: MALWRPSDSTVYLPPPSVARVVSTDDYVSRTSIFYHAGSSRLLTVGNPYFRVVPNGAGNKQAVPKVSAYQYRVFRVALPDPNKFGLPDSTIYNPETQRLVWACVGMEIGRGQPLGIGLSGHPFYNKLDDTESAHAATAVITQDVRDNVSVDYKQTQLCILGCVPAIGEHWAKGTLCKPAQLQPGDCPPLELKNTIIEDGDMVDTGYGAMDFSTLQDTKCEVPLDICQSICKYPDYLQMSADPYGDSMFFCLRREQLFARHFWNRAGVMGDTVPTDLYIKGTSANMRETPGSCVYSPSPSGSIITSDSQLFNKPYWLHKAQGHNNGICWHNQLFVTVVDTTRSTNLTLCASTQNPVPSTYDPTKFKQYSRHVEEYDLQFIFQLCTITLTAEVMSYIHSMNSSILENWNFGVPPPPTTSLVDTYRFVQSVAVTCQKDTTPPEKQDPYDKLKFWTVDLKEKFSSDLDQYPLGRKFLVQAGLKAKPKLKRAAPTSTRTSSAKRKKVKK

B1: monoclonal antibody HPV6-R003 (antibody, V domains shown)
VH: QQQLEESGGGLVKPGGTLTLTCKASGIDLSNYYMCWVRQAPGKGLEWIGCIYTGSGRTYYASWAKGRFTISKASSTTVTLQMTSLTAADTATYFCARDYLGWRASNIWGPGTLVTVSS
VL: ELVMTQTPSSVSAAVGGTVTINCQASQSVYSNNLVWYQQKPGQPPKLLIYGASTLASGVPSRFKGSGSGTQFTLTISDVVCDDAATYYCGGYVSDSTDGTAFGGGTEVVVKG
notes: here built from variable plus constant region so that the signal peptides are left out; In the sandwich ELISA the same antibody is used as coating antibody and, labelled with horseradish peroxidase, as detection antibody; also called anti-HPV6 L1 protein antibody
B1: no binding (tested: antibody 10 ng/mL; coating 2 µg/mL) [1]; no binding (tested: antibody 10 ng/mL; coating 2 µg/mL) [2]; no binding (tested: antibody 10 ng/mL; coating 2 µg/mL) [3]. For the same binder, the binding result [4] was “no binding (tested: antibody 10 ng/mL; coating 2 µg/mL)”, the OD450-blank [5] was 0.044 OD450 and the binding result [6] was “no binding (tested: mixture 50 ng/mL, each subtype 1/13)”.
